Measured values as given in patent US20240400614A1, “CLEAVABLE PEPTIDES AND METHODS OF USE THEREOF” (Bright Peak Therapeutics AG, priority 2023, published 2024).
Square brackets hold non-standard residues; d marks the D form. Ends that are not written are not given here. Tyr(3-NO2) = N[C@@H](Cc1ccc(O)c([N+](=O)[O-])c1)C(=O)O; 2Abz = Nc1ccccc1C(=O)O

Columns and labels:
Format in all cases: biochemical
MMP-9 = biological target: T1, MMP-9 (Homo sapiens, UniProt P14780); experiment: FRET peptide cleavage efficiency with MMP-9 (standard pH 7.5; also pH 6.5)
T1 construct: purchased SIGMA PF024

uPA = uPA (Homo sapiens, UniProt P00749); experiment: FRET peptide cleavage efficiency with uPA
MMP-7 = biological target: T2, MMP-7 (Homo sapiens, UniProt P09237); experiment: FRET peptide cleavage efficiency with MMP-7 (standard pH 7.5; also pH 6.5)
T2 construct: purchased SIGMA CC1059
T2 sequence (P09237 95-267): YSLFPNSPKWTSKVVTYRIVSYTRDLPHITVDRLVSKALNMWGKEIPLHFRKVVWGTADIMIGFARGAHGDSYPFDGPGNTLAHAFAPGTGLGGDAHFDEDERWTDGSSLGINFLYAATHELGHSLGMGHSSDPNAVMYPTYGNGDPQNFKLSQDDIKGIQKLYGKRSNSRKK

matriptase = biological target: T3, matriptase (Homo sapiens, UniProt Q9Y5Y6); experiment: FRET peptide cleavage efficiency with matriptase
T3 construct: purchased R&D Systems 3946-SEB
T3 sequence (Q9Y5Y6 615-855 limits assumed): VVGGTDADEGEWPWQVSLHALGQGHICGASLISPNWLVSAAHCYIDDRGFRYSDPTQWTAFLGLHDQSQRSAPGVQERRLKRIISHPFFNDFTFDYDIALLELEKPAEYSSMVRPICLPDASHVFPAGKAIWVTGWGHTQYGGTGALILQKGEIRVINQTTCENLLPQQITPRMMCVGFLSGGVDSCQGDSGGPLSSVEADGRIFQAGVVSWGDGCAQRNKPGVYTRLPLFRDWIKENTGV

MMP-2 = biological target: T4, MMP-2 (Homo sapiens, UniProt P08253); experiment: FRET peptide cleavage efficiency with MMP-2
T4 construct: purchased SIGMA PF023
T4 sequence (P08253 110-660): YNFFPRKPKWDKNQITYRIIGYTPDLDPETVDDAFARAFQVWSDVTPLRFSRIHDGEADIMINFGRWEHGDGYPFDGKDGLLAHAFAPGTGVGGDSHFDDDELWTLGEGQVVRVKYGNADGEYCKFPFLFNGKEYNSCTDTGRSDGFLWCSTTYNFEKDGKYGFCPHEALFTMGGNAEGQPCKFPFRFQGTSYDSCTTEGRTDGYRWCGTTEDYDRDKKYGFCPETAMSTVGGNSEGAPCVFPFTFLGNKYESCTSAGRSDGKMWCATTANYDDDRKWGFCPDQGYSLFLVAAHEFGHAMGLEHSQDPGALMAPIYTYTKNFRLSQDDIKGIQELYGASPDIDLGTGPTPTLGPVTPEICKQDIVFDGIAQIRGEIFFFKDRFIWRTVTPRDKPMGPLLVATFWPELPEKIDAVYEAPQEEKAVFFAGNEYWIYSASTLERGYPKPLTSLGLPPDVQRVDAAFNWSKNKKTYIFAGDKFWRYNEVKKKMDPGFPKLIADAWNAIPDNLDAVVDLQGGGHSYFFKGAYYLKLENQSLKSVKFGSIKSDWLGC

[1] = t = 15 min, standard conditions (Table 8)
[2] = t = 60 min, standard conditions (Table 8)
[3] = t = 120 min, standard conditions (Table 8)
[4] = t = 15 min, 200 uM linker, 1 ug/ml protease, 37° C., buffer A pH 8.5
[5] = t = 60 min, 200 uM linker, 1 ug/ml protease, 37° C., buffer A pH 8.5
[6] = t = 120 min, 200 uM linker, 1 ug/ml protease, 37° C., buffer A pH 8.5
[7] = t = 15 min, 200 uM linker, 1 ug/ml protease, 37° C., buffer B pH 9.0
[8] = t = 60 min, 200 uM linker, 1 ug/ml protease, 37° C., buffer B pH 9.0
[9] = 200 uM linker, 1 ug/ml protease, 37° C., buffer B pH 9.0
[10] = t = 15 min, 200 uM linker, 1 ug/ml protease, 37° C., buffer C pH 7.5
[11] = t = 60 min, 200 uM linker, 1 ug/ml protease, 37° C., buffer C pH 7.5
[12] = t = 120 min, 200 uM linker, 1 ug/ml protease, 37° C., buffer C pH 7.5

T1 sequence (P14780 94-707): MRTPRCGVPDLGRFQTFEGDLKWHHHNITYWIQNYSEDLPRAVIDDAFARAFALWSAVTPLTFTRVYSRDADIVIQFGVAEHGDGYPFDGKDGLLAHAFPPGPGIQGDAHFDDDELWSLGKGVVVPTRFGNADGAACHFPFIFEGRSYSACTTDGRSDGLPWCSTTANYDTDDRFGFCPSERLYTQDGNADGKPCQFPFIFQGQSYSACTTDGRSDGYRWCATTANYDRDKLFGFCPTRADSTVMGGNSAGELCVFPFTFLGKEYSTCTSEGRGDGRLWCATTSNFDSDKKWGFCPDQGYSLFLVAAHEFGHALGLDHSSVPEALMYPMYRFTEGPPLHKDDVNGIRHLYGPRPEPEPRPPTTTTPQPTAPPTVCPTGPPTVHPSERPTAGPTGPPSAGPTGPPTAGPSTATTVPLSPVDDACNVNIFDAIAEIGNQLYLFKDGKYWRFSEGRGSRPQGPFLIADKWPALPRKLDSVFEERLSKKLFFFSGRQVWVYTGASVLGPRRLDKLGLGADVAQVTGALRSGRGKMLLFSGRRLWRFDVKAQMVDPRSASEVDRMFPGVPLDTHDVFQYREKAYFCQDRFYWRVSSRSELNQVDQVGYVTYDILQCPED

Row | Sequence | % cleavage MMP-9 t = 15 min (MMP-9; t = 15 min (Table 9)) [%] | % cleavage MMP-9 t = 60 min (MMP-9; t = 60 min (Table 9)) [%] | % cleavage MMP-9 t = 120 min (MMP-9; t = 120 min (Table 9)) [%] | % cleavage MMP-7 t = 15 min (MMP-7; t = 15 min (Table 9)) [%] | % cleavage MMP-7 t = 60 min (MMP-7; t = 60 min (Table 9)) [%] | % cleavage MMP-7 t = 120 min (MMP-7; t = 120 min (Table 9)) [%] | % cleavage MMP-2 t = 15 min (MMP-2; t = 15 min (Table 9)) [%] | % cleavage MMP-2 t = 60 min (MMP-2; t = 60 min (Table 9)) [%] | % cleavage MMP-2 t = 120 min (MMP-2; t = 120 min (Table 9)) [%] | % cleavage uPA t = 60 min (uPA; pH 6.5, t = 60 min (Table 7)) [%] | % cleavage uPA t = 120 min (uPA; pH 6.5, t = 120 min (Table 7)) [%] | % cleavage uPA t = 60 min (uPA; pH 7.5, t = 60 min (Table 7)) [%] | % cleavage uPA t = 120 min (uPA; pH 7.5, t = 120 min (Table 7)) [%] | % cleavage uPA t = 15 min (uPA; [4]) [%] | % cleavage uPA t = 60 min (uPA; [5]) [%] | % cleavage uPA t = 120 min (uPA; [6]) [%] | % cleavage Matriptase t = 15 min (matriptase; pH 6.5, t = 15 min (Table 7)) [%] | % cleavage Matriptase t = 60 min (matriptase; pH 6.5, t = 60 min (Table 7)) [%] | % cleavage Matriptase t = 15 min (matriptase; pH 7.5, t = 15 min (Table 7)) [%] | % cleavage Matriptase t = 60 min (matriptase; pH 7.5, t = 60 min (Table 7)) [%] | further results
1 | SGRVYMLQG ([2Abz]SGRVYMLQG[Tyr(3-NO2)]-NH2) [LNK044] | 0 | 1 | 2 | 1 | 4 | 9 | 0 | 0 | 1 | – | – | – | – | – | – | – | – | – | – | – | % cleavage MMP-9 t = 15 min (MMP-9; [1]): 0%; % cleavage MMP-9 t = 60 min (MMP-9; [2]): 1%; % cleavage MMP-9 t = 120 min (MMP-9; [3]): 2%; % vcleavage uPA t = 15 min (uPA; [1]): 0%; % cleavage uPA t = 60 min (uPA; [2]): 0%; % cleavage uPA t = 120 min (uPA; [3]): 0%; % cleavage MMP-7 t = 15 min (MMP-7; [1]): 1%; % cleavage MMP-7 t = 60 min (MMP-7; [2]): 4%; % cleavage MMP-7 t = 120 min (MMP-7; [3]): 9%; % cleavage Matriptase t = 15 min (matriptase; [1]): 0%; % cleavage Matriptase t = 60 min (matriptase; [2]): 0%; % cleavage Matriptase t = 120 min (matriptase; standard conditions (Table 8)): 0%; % cleavage MMP-2 t = 60 min (MMP-2; [2]): 0%; % cleavage MMP-2 t = 120 min (MMP-2; [3]): 1%
2 | SSRGPYMLQG ([2Abz]SSRGPYMLQG[Tyr(3-NO2)]-NH2) [LNK022] | 63 | 99 | 100 | 40 | 0 | 100 | 27 | 79 | 94 | 0 | 0 | 0 | 0 | 0 | 1 | 3 | 0 | 0 | 0 | 0 | % cleavage Matriptase t = 15 min (matriptase; [7]): 8%; % cleavage Matriptase t = 60 min (matriptase; [8]): 9%; % cleavage Matriptase t = 120 min (matriptase; [9]): 11%; % cleavage MMP-2 t = 15 min (MMP-2; pH 6.5, t = 15 min (Table 7)): 32%; % cleavage MMP-2 t = 60 min (MMP-2; pH 6.5, t = 60 min (Table 7)): 74%; % cleavage MMP-2 t = 15 min (MMP-2; pH 7.5, t = 15 min (Table 7)): 36%; % cleavage MMP-2 t = 60 min (MMP-2; pH 7.5, t = 60 min (Table 7)): 84%; % cleavage MMP-2 t = 15 min (MMP-2; [10]): 31%; % cleavage MMP-2 t = 60 min (MMP-2; [11]): 81%; % cleavage MMP-2 t = 120 min (MMP-2; [12]): 96%
3 | SSRGRRGPYMLQG ([2Abz]SSRGRRGPYMLQG[Tyr(3-NO2)]-NH2) [LNK021] | 60 | 98 | 100 | 22 | 69 | 83 | 20 | 64 | 100 | 0 | 0 | 10 | 19 | 5 | 16 | 27 | 100 | 100 | 100 | 100 | % cleavage Matriptase t = 15 min (matriptase; [7]): 100%; % cleavage Matriptase t = 60 min (matriptase; [8]): 100%; % cleavage Matriptase t = 120 min (matriptase; [9]): 100%; % cleavage MMP-2 t = 15 min (MMP-2; pH 6.5, t = 15 min (Table 7)): 26%; % cleavage MMP-2 t = 60 min (MMP-2; pH 6.5, t = 60 min (Table 7)): 64%; % cleavage MMP-2 t = 15 min (MMP-2; pH 7.5, t = 15 min (Table 7)): 24%; % cleavage MMP-2 t = 60 min (MMP-2; pH 7.5, t = 60 min (Table 7)): 64%; % cleavage MMP-2 t = 15 min (MMP-2; [10]): 23%; % cleavage MMP-2 t = 60 min (MMP-2; [11]): 66%; % cleavage MMP-2 t = 120 min (MMP-2; [12]): 88%
